From article PMC10998907

Experiments:
[1] = target: NiV-RBP ectodomain homotetramer (Nipah virus); experiment: cryo-EM structure
[2] = target: NiV-RBP ectodomain (NiV attachment glycoprotein ectodomain), homotetramer (Nipah virus) (UniProt Q9IH62); experiment: negative-stain EM

NiV-RBP ectodomain homotetramer (domain or fragment)
stoichiometry N [1]: 4

NiV-RBP ectodomain (NiV attachment glycoprotein ectodomain), homotetramer (from UniProt Q9IH62 1-602) (domain or fragment)
stoichiometry N [2]: 4
